Consider 1 substance from paper PMC3720604.

The test deals with endogenous CK2β (human (endogenous in HeLa)) (UniProt P67870). Nature of the test: co-IP; lysates (200 ug) of HeLa cells transfected with CK2α-HA or CK2α′-HA; consecutive rounds of immunoprecipitation with anti-CK2β sera and protein A sepharose, or mock control; supernatant and immunoprecipitate blotted for HA and CK2β; NP-40 alternative lysis buffer, 150 mM NaCl, 50 mM Tris pH 7.5.
UniProt P67870, sequence (P67870 whole entry): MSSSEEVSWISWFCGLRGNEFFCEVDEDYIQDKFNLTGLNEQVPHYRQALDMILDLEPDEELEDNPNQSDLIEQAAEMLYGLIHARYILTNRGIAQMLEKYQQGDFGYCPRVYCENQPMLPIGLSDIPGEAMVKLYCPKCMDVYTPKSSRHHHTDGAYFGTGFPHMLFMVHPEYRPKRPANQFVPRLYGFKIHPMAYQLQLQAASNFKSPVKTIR

CK2α′-HA, sequence (P19784 whole entry): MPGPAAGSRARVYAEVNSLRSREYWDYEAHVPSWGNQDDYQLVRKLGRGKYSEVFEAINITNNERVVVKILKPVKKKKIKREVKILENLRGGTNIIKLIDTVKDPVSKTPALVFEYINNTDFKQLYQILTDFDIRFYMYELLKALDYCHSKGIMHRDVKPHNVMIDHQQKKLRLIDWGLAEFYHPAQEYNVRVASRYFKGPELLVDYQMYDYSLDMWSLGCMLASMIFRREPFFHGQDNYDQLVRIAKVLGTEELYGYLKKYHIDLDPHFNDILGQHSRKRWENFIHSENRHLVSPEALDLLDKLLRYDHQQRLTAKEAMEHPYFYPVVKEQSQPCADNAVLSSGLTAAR

In turn, “CK2α′-HA (from UniProt P19784 1-350) (enzyme)” came in with a percent depleted from the lysate by CK2β immunoprecipitation of over 90%.
